Key:
[1] = molecular target: his-tagged DLL3 antigen protein (UniProt Q9NYJ7); assay: flow cytometry; transduced T cells with 3 ug/ml his-tagged DLL3, AF647 secondary antibody
[2] = molecular target: his-tagged DLL3 antigen protein (UniProt Q9NYJ7); assay: flow cytometry; transduced T cells, method of the earlier example (his-tagged DLL3 staining)

Sequence of UniProt Q9NYJ7 (Q9NYJ7 27-492 limits assumed): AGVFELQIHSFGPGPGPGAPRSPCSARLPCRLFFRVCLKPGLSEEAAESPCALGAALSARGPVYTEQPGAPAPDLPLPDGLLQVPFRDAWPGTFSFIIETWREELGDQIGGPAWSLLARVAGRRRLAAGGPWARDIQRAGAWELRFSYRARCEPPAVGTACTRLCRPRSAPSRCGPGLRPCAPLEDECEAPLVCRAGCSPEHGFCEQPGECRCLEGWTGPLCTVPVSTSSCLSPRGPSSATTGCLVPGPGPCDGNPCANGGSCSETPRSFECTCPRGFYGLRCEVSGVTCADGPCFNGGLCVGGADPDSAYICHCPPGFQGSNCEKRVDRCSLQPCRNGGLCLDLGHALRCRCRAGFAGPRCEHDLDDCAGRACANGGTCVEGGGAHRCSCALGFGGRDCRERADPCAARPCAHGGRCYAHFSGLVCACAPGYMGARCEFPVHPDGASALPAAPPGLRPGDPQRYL

- CAR expression level (% of T cells stained with his-tagged DLL3 antigen protein) [1]: 69%
- CAR expression level (% of T cells stained with his-tagged DLL3 antigen protein) [2]: 74%
B1: DLL3-CAR09 (protein)
chain: DIVMTQSPLSLPVTPGEPASISCRASQTISDYLHWYLQKPGQSPQLLIKYASQSISGVPDRFSGSGSGSDFTLKISRVEAEDVGVYYCQQGHSFPLTFGQGTKLEIKGGGGSGGGGSGGGGSEVQLVQSGAEVKKPGASVKVSCKASGYTFTSYWMHWVRQAPGQRLEWMGTIYPGNSDTRYNQKFKDRVTITADTSASTAYMELSSLRSEDTAVYYCTRSYDYGDLDYWGQGTTVTVSSAAAIEVMYPPPYLDNEKSNGTIIHVKGKHLCPSPLFPGPSKPFWVLVVVGGVLACYSLLVTVAFIIFWVRSKRSRLLHSDYMNMTPRRPGPTRKHYQPYAPPRDFAAYRSRVKFSRSADAPAYQQGQNQLYNELNLGRREEYDVLDKRRGRDPEMGGKPRRKNPQEGLYNELQKDKMAEAYSEIGMKGERRRGKGHDGLYQGLSTATKDTYDALHMQALPPR

Reference: patent EP4722370A1
